Test results published in PMC3478187, “PEGylation, increasing specific activity and multiple dosing as strategies to improve the risk-benefit profile of targeted radionuclide therapy with ^177Lu-DOTA-bombesin analogues” (EJNMMI Research, 2012).
Like-named read-outs stand apart in the source and are kept apart here.

Experiments:
[1] = Metabolic stability in human plasma; format: in vitro ADME; conditions: 37 °C
Description: The labelled analogues were incubated with human plasma (final concentration, 10 MBq/0.6 ml) at 37 °C for various time intervals up to 12 days. After incubation, proteins were precipitated with acetonitrile/ethanol (1:1) and TFA (0.1%) and then centrifuged. The supernatant was analysed with RP-high-performance liquid chromatography (HPLC) equipped with a radioactivity detector. […] The experiments were performed two times.

[2] = Octanol/PBS partition coefficient (log D); format: physicochemical; conditions: shake-flask 1-octanol/PBS (1:1), pH 7.4, 30 kBq, vortex 1 min, centrifuged, gamma counter, sextuplicate, mean ± SD
Description: Material & Methods: The octanol/PBS partition coefficients were determined at pH 7.4. Five μl containing 30 kBq of the radiolabelled compounds in phosphate buffered saline (PBS) were added to a vial which contained 1.2 ml of 1-octanol and PBS (1:1). After vortexing for 1 min, the vial was centrifuged (5 min, 10 000 rpm) to ensure complete separation of layers. Then, 40 μl of each layer were taken in a preweighed vial and measured in a gamma counter (Packard Canberra Cobra II, Meriden, USA). Counts per weight unit of sample were calculated and log D values were determined as described by Pillarsetty et al. using the formula log10D=log10 (counts in 1 g of octanol/counts in 1 g of PBS). The experiments were performed in sextuplicate.

[3] = Biodistribution in nude mice bearing PC-3 tumour xenografts; conditions: female, CD-1 nu/nu, mouse, in vivo, iv, total radioactivity; for tissue uptake at 1 h / tissue uptake at 24 h: 0.3 MBq/0.075 nmol i.v., mean ± SD
Description: All animal experiments were conducted in compliance with the Swiss animal protection laws and with the ethical principles and guidelines for scientific animal experimentation established by the Swiss Academy of Natural Sciences. Biodistribution studies were performed with 6- to 8-week-old female CD-1 nu/nu mice (20 to 25 g) purchased from Charles River Laboratories (Sulzfeld, Germany). For the induction of tumour xenografts, each mouse received subcutaneously 8 × 10^6 PC-3 cells in 150 μl culture medium without supplements. The tumours were allowed to grow for at least 3 weeks. On the day of the experiment, the mice (3 to 6 per group) received the radioactive conjugates intravenously. […] Receptor-blocking studies were performed using 100 μg of unlabelled BN(1–14) co-injected with the corresponding radiolabelled BN analogue. At 1, 4 and 24 h post injection (p.i.), the animals were euthanised and dissected. Blood, tumours and various healthy tissues and organs were collected, weighed and examined for radioactivity. Results are expressed as percentage of injected dose per gram of tissue (% ID/g).

## CCCC[C@H](NC(=O)[C@H](CC1CCCCC1)NC(=O)[C@H](Cc1c[nH]cn1)NC(=O)CNC(=O)[C@@H](NC(=O)[C@H](C)NC(=O)[C@H](Cc1c[nH]c2ccccc12)NC(=O)[C@H](CCC(N)=O)NC(=O)CCNC(=O)CCNC(=O)CC(CCCCN)NC(=O)CN1CCN(CC(=O)O)CCN(CC(=O)O)CCN(CC(=O)O)CC1)C(C)C)C(N)=O (stereo partly drawn) [^177Lu-DOTA-Lys-BN, metal not drawn]
[1]; 10 MBq/0.6 ml, 5 days, precipitation acetonitrile/ethanol (1:1) + 0.1% TFA, RP-HPLC radioactivity detector, performed two times, mean ± SD, read-out: remained intact after 5 days
  remaining at 120 h, 10 MBq/0.6 ml: 13.8 ± 5.7%
[1]; 10 MBq/0.6 ml, up to 12 days, RP-HPLC radioactivity detector, performed two times, mean ± SD
  half-life at 10 MBq/0.6 ml: 28.8 h
[1]; in vitro, as printed in hours in the discussion
  half-life (t1/2) in human plasma: 28.8 h
[2]
  logD: -2.18 ± 0.07
[3]; 1 h p.i. blocked, 100 μg unlabelled BN(1–14) co-injected, n = 3 to 4, read-out: Colon uptake, blocked
  tissue uptake at 1 h: 0.36 ± 0.07 %ID/g
[3]; 1 h p.i. blocked, 100 μg unlabelled BN(1–14) co-injected, n = 3 to 4, read-out: Pancreas uptake, blocked
  tissue uptake at 1 h: 0.49 ± 0.22 %ID/g
[3]; 1 h p.i. blocked, 100 μg unlabelled BN(1–14) co-injected, n = 3 to 4, read-out: Tumour uptake, blocked
  tissue uptake at 1 h: 0.55 ± 0.03 %ID/g
[3]; 1 h p.i., n = 3 to 4, read-out: Blood uptake
  tissue uptake at 1 h: 0.24 ± 0.07 %ID/g
[3]; 1 h p.i., n = 3 to 4, read-out: Bone uptake
  tissue uptake at 1 h: 0.36 ± 0.24 %ID/g
[3]; 1 h p.i., n = 3 to 4, read-out: Colon uptake
  tissue uptake at 1 h: 1.64 ± 0.4 %ID/g
[3]; 1 h p.i., n = 3 to 4, read-out: Heart uptake
  tissue uptake at 1 h: 0.14 ± 0.06 %ID/g
[3]; 1 h p.i., n = 3 to 4, read-out: Kidneys uptake
  tissue uptake at 1 h: 2.86 ± 0.63 %ID/g
[3]; 1 h p.i., n = 3 to 4, read-out: Liver uptake
  tissue uptake at 1 h: 0.26 ± 0.09 %ID/g
[3]; 1 h p.i., n = 3 to 4, read-out: Lung uptake
  tissue uptake at 1 h: 0.36 ± 0.08 %ID/g
[3]; 1 h p.i., n = 3 to 4, read-out: Muscle uptake
  tissue uptake at 1 h: 0.2 ± 0.24 %ID/g
[3]; 1 h p.i., n = 3 to 4, read-out: Pancreas uptake
  tissue uptake at 1 h: 8.68 ± 1.95 %ID/g
[3]; 1 h p.i., n = 3 to 4, read-out: Small intestine uptake
  tissue uptake at 1 h: 1.38 ± 0.41 %ID/g
[3]; 1 h p.i., n = 3 to 4, read-out: Spleen uptake
  tissue uptake at 1 h: 0.42 ± 0.12 %ID/g
[3]; 1 h p.i., n = 3 to 4, read-out: Stomach uptake
  tissue uptake at 1 h: 0.72 ± 0.19 %ID/g
[3]; 1 h p.i., n = 3 to 4, read-out: Tumour uptake
  tissue uptake at 1 h: 1.88 ± 0.47 %ID/g
[3]; 24 h p.i., 0.075 nmol, read-out: tumour-to-liver ratio
  tissue to tissue ratio at 24 h: 5.9
[3]; 24 h p.i., n = 3 to 4, read-out: Bone uptake
  tissue uptake at 24 h: 0.02 ± 0.01 %ID/g
[3]; 24 h p.i., n = 3 to 4, read-out: Colon uptake
  tissue uptake at 24 h: 0.36 ± 0.09 %ID/g
[3]; 24 h p.i., n = 3 to 4, read-out: Heart uptake
  tissue uptake at 24 h: 0.01 ± 0.01 %ID/g
[3]; 24 h p.i., n = 3 to 4, read-out: Kidneys uptake
  tissue uptake at 24 h: 1.41 ± 0.14 %ID/g
[3]; 24 h p.i., n = 3 to 4, read-out: Liver uptake
  tissue uptake at 24 h: 0.09 ± 0.02 %ID/g
[3]; 24 h p.i., n = 3 to 4, read-out: Lung uptake
  tissue uptake at 24 h: 0.02 ± 0.01 %ID/g
[3]; 24 h p.i., n = 3 to 4, read-out: Muscle uptake
  tissue uptake at 24 h: 0.01 %ID/g
[3]; 24 h p.i., n = 3 to 4, read-out: Pancreas uptake
  tissue uptake at 24 h: 4.27 ± 0.85 %ID/g
[3]; 24 h p.i., n = 3 to 4, read-out: Small intestine uptake
  tissue uptake at 24 h: 0.16 ± 0.03 %ID/g
[3]; 24 h p.i., n = 3 to 4, read-out: Spleen uptake
  tissue uptake at 24 h: 0.18 ± 0.04 %ID/g
[3]; 24 h p.i., n = 3 to 4, read-out: Stomach uptake
  tissue uptake at 24 h: 0.1 ± 0.02 %ID/g
[3]; 24 h p.i., n = 3 to 4, read-out: Tumour uptake
  tissue uptake at 24 h: 0.54 ± 0.3 %ID/g
